From the supplement of paper PMC12042874 come the findings set out here.

± gives the uncertainty stated by the source.

The data set in a line: amyloid nucleation score (Sup35N fusion, yeast selection) (log enrichment); library NNK3; higher = more nucleation; inactive = no reads after selection. In a few lines:
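Random libraries were run with three technical output replicates. In each, psi-negative yeast expressing Sup35N fused to peptides of 20 random codons were induced 24 hours with 100 μM copper sulfate and grown 7 days at 30°C on medium lacking adenine and uracil, and input and output plasmid inserts were Illumina-sequenced. The nucleation score is the DiMSum log enrichment of output over input reads, centred on the mode score of non-aggregating sequences, and sequences under 100 input reads were excluded.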
On to CCRGRAFVGYLLQIIYVRGR, for which the amyloid nucleation score result is “inactive”.
In the case of CCSRACEFVAVKFNRSSYNL, the amyloid nucleation score result was “inactive”.
Next, CCVGYFYGLEV: 2.06 ± 0.064; CDFIDVS: “inactive”.
Next, CDMRP: “inactive”; CDRLYSNLLRVAAMAPKASW: “inactive”; CDSLHNDAVYTSLGAWANHP: “inactive”.
For the substance CDVQKSLGCHTCWGRDWWNR, the amyloid nucleation score entry was “inactive”.
Next, CDWFILKA: “inactive”; CEVRGCNYTYSVGERCSQN: “inactive”; CFAFGW: “inactive”.
For CFAHSLMR, the amyloid nucleation score result was “inactive”.
With CFAIYSLLYRVR, the amyloid nucleation score was 1.55 ± 0.074.
With CFGRLLRTAILNLCNLFFAL, the amyloid nucleation score result was “inactive”.
In the case of CFIKSMRVVMVILPFAPCLK, the amyloid nucleation score result was “inactive”.
Next, CFLAENILFSN: 0.024 ± 0.64.
As for CFLRKTSNASLIHPSRDTNN, the amyloid nucleation score result was “inactive”.
Next, CFLRWNRFL: 0.106 ± 1.1.
Take CFLVNQ: the amyloid nucleation score result was “inactive”.
Next, CFMSNIDIFLDRCMRKGCNH: 2.08 ± 0.072; CFPLSVK: “inactive”.
Regarding CFPTTSK, the amyloid nucleation score result is “inactive”.
Next, CFSTPCLCQSNELANIGSPT: “inactive”; CFVGLRSGAVSCWGQGNYVA: “inactive”; CGDAPRQVVVGPRYKRSMES: -0.193 ± 0.65.
On to CGDLMPNRYTLSSSNTMSNS, for which the amyloid nucleation score result was “inactive”.
CGFDMY yielded an amyloid nucleation score of 1.84 ± 0.094.
As to CGGANVLYRVQYDPWRS, the amyloid nucleation score entry was “inactive”.
Next, CGIMPLSHGIDLMFVRVTPG: “inactive”; CGNHASVWRIGTVRKD: “inactive”; CGRGDSVLSI: “inactive”.
Consider CGSVSSI, for which the amyloid nucleation score entry was “inactive”.
As to CGSWYSCCKNINEVARSYTG, the amyloid nucleation score entry was “inactive”.
CGVEHYWRGLVG: the amyloid nucleation score entry was “inactive”.
Next, CGVSWTVSIITDTFICN: 2.76 ± 0.06; CHFPG: “inactive”.
Next, CHMWSEHSTTLMYYSKKY: 0.199 ± 0.41.
Next, CHYFNNLACYGSRIEMT: “inactive”; CHYRYISYVENFPCSERVSI: “inactive”; CICWQHDKVVAYSLSDAGMA: “inactive”.
CIFTIFNYQTLIELSHYFSR yielded an amyloid nucleation score of 1.82 ± 0.067.
As to CIGTI, the amyloid nucleation score entry is “inactive”.
On to CIGWRIM, for which the amyloid nucleation score entry is “inactive”.
Regarding CIHSRTNNIRMTNCVRLGLG, the amyloid nucleation score entry was “inactive”.
For CINNLYGRNVGSYGECEPFA, the amyloid nucleation score entry is “inactive”.
Next, CIPCTVTFG: “inactive”; CISFPDDWRSHTI: “inactive”; CIVKTLQ: “inactive”.
CKCVNLQFAVTIHCGGFVPF registered an amyloid nucleation score of 2.52 ± 0.072.
As for CKFSDW, the amyloid nucleation score entry is “inactive”.
Next, CKGKSFFARSYS: “inactive”.
Next, CKMRVILKFIKNL: 0.48 ± 0.16; CKNQHFLSLIGFLYHIDPKR: 0.709 ± 0.17; CKTGPEDTC: “inactive”.
Regarding CLATN, the amyloid nucleation score entry was “inactive”.
In the case of CLCKLEWHNTYMGYKR, the amyloid nucleation score worked out at 2.63 ± 0.08.
Next, CLCNRDRLSSNFGGMTDKLH: “inactive”.
Next, CLCVTAGYISNTGGHRSWII: “inactive”; CLFSLPWWCSMM: “inactive”.
Consider CLGAGLRSGSAARLYEFGQV, for which the amyloid nucleation score entry was “inactive”.
In the case of CLGFSL, the amyloid nucleation score result was “inactive”.
Consider CLILCLIKYIERRFCWCFPW, for which the amyloid nucleation score result was “inactive”.
For the substance CLKGNFIVNSNVFKCVLWYS, the amyloid nucleation score entry is “inactive”.
Next, CLNHQASMVSTAPVEFFRFL: “inactive”; CLPWHWMLNYFGYKNVKS: “inactive”.
As for CLQSQFLNFE, the amyloid nucleation score result is “inactive”.
CLRLGLIMDTKK: the amyloid nucleation score entry was “inactive”.
With CLSGRCRASMLPLGRVSKCD, the amyloid nucleation score result is “inactive”.
Next, CLTYRSG: “inactive”; CLVHEVPWRQMGSDLNKAAS: “inactive”; CLVPFAGQWHTVEIMMSSCQ: “inactive”.
Regarding CLWRRCMPSHPMVEVSRLIW, the amyloid nucleation score result was “inactive”.
Next, CLYNGMWSCVEWNSKGSMHL: 1.26 ± 0.069; CMCRLEGRTSDLCQESGSCC: -1.13 ± 1.5; CMDYYKMYISYYFDAGWVLS: “inactive”.
Next, CMFVVFQLVTGHFTLLQYHG: 1.82 ± 0.077; CMHGKGHSTFINNKDPVKVR: “inactive”.
Next, CMSPYALGEISKRRVEVDSY: “inactive”; CMSPYWML: “inactive”; CMYILFINVCMATGANYGSY: 1.58 ± 0.092.
Turning to CNLYPCPYSKITDTAMLLGC, the amyloid nucleation score result was “inactive”.
Next, CNMPGLVDDFLCHGICNNVV: “inactive”; CNRVPVFFMFYVEQGVLRWN: 2.13 ± 0.081; CPHMKLFRLLI: “inactive”.
Next, CPYALMWSLSYSWSFPYRMS: 0.286 ± 0.56; CQCEIF: 0.065 ± 0.56.
Next, CQFFQFDLNYEFKLVSRAHK: “inactive”; CQKRETVFIKRD: “inactive”.
CQLLHMELDNARRCEIKKPA: the amyloid nucleation score entry is “inactive”.
CQQIWRLGQCVQLLFCTRSK: the amyloid nucleation score came out at 1.31 ± 0.11.
Next, CQSSVLLCSYCGY: 2.65 ± 0.074; CQYRVTSYHSSWFFSEAMHP: -0.268 ± 0.7.
For the substance CRCHRLVNIPSMFWCLKFVG, the amyloid nucleation score result is “inactive”.
Turning to CRCKC, the amyloid nucleation score entry was “inactive”.
With CRDNTGFCRGSAAVFNRCTG, the amyloid nucleation score entry was “inactive”.
Consider CRDYYYHSQYCVVASVGTVV, for which the amyloid nucleation score entry was “inactive”.
Next, CREVINDSFPNATWLHSGLV: “inactive”; CRHRYLDCCFGNWHP: “inactive”.
Next, CRLELPMGSTTDDDRGQKVD: -0.014 ± 0.53; CRLRGKLIYLLIMDGTKE: “inactive”.
